According to US20220289795, “EFFICIENT METHOD FOR PREPARING PPR PROTEIN AND USE OF THE SAME” (EditForce, Inc., published 2022):
Positions count from the first letter of the chain named.

What was measured:
Assay in all cases: ELONA; RPB-ELISA
v3.1_PPR13 = molecular target: T1, v3.1_PPR13 (Artificial Sequence); settings: tags: luciferase fusion; label: 5'-biotin
T1 chain: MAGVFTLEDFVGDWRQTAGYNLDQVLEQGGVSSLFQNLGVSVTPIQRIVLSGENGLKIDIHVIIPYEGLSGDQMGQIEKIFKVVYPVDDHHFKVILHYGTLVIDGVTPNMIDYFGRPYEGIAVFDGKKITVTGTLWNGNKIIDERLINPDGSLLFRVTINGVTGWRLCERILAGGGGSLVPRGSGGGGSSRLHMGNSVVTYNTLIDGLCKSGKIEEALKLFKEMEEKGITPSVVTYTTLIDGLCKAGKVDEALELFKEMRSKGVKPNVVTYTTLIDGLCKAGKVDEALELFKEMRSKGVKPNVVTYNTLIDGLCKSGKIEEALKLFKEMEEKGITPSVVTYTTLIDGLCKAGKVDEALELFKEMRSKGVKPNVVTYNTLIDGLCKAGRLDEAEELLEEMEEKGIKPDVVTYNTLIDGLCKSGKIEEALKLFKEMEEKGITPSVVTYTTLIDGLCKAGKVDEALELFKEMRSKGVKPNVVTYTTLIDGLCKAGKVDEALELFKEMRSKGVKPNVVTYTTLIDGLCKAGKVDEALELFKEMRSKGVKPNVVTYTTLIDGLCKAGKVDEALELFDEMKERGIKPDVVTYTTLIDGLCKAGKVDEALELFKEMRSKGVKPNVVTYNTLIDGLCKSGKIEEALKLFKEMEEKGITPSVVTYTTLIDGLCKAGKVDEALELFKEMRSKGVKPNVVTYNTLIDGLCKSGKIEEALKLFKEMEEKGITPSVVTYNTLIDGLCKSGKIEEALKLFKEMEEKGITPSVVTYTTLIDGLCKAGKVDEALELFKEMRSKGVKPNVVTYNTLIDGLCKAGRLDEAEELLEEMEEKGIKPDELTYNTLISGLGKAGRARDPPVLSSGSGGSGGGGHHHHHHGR

NL_v2_PPR13 = molecular target: T2, NL_v2_PPR13 (Artificial Sequence); settings: tags: N-term luciferase, C-term 6xHis; label: 5'-biotin
T2 chain: T1 chain with K248D, K283D, K353D, K458D, K493D, K528D, K598D, K668D, K773D

v3.1_PPR15 = molecular target: T3, v3.1_PPR15 (Artificial Sequence); settings: tags: luciferase fusion; label: 5'-biotin
T3 chain: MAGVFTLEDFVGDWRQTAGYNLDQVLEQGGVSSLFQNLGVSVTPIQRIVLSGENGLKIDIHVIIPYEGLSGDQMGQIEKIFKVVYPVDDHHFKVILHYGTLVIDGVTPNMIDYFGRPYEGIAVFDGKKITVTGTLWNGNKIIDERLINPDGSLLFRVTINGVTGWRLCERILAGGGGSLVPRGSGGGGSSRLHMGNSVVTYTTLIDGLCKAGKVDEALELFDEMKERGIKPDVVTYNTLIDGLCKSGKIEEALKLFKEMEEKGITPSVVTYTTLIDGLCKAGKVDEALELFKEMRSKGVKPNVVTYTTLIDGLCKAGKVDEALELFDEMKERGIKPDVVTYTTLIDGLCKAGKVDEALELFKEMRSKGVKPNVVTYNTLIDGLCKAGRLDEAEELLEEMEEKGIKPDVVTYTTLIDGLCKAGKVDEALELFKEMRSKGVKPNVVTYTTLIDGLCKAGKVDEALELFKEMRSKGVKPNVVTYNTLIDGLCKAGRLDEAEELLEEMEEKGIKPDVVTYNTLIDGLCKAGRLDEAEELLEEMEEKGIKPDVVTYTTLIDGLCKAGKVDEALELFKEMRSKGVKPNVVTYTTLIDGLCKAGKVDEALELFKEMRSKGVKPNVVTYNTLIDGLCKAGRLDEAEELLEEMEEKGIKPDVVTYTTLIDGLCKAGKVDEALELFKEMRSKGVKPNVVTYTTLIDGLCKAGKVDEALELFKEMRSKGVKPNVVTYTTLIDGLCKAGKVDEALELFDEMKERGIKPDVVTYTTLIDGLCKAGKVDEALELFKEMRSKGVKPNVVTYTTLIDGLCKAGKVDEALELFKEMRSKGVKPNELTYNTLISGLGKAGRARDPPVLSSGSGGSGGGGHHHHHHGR

NL_v2_PPR15 = molecular target: T4, NL_v2_PPR15 (Artificial Sequence); settings: tags: N-term luciferase, C-term 6xHis; label: 5'-biotin
T4 chain: T3 chain with K283D, K353D, K423D, K458D, K563D, K598D, K668D, K703D, K773D, K808D

NL_v2_PPR14 = molecular target: T5, NL_v2_PPR14 (Artificial Sequence); settings: tags: N-term luciferase, C-term 6xHis; label: 5'-biotin
T5 chain: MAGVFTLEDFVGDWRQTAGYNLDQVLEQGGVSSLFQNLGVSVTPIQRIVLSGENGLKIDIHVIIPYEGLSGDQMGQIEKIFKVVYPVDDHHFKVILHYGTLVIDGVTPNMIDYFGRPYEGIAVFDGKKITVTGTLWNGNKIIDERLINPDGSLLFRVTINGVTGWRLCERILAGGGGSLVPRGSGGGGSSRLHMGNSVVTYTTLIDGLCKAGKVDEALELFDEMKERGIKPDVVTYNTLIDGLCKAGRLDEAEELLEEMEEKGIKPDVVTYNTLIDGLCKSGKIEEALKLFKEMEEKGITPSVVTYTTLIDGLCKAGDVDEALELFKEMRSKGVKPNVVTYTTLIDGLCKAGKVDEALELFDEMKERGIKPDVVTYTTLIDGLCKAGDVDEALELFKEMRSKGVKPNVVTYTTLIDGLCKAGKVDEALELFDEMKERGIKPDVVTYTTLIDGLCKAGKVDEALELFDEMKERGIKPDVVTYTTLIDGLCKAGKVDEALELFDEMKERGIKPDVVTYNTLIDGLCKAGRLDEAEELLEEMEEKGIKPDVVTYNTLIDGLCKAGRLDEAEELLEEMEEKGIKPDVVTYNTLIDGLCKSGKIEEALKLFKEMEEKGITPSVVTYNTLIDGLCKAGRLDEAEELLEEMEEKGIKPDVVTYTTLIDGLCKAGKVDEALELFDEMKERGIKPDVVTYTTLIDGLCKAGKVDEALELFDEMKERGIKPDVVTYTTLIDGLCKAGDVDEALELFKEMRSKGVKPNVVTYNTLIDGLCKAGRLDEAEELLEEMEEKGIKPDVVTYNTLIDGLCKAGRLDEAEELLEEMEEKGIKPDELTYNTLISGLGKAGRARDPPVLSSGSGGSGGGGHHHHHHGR

v3.1_PPR14 = molecular target: T6, v3.1_PPR14 (Artificial Sequence); settings: tags: luciferase fusion; label: 5'-biotin
T6 chain: T5 chain with D318K, D388K, D738K

B1: RNA_13 (ssRNA)
RNA: GACAUGCCAACAUCAAAGACACCAUGACUG
v3.1_PPR13
  binding signal: 4e+07 luminescence
NL_v2_PPR13
  binding signal: 2.3e+06 luminescence

B2: RNA_15 (ssRNA)
RNA: GACAUGCGCAGAUAAUUAAUAAGAAGACUG
v3.1_PPR15
  binding signal: 3.2e+07 luminescence
NL_v2_PPR15
  binding signal: 1.3e+07 luminescence

B3: RNA_14 (ssRNA)
RNA: GACAUGCGUCAGAGGGUUCUGGAUUGACUG
NL_v2_PPR14
  binding signal: 2.5e+07 luminescence
v3.1_PPR14
  binding signal: 2.5e+07 luminescence
